Experimental data as given in patent US20110135634A1, “METHODS OF INHIBITING INFECTION BY DIVERSE SUBTYPES OF DRUG-RESISTANT HIV-1” (priority 2007, published 2011).

Tested on: CCR5 chemokine signaling (L1.2-CCR5 cells)
Assay: RANTES-induced calcium mobilization in L1.2-CCR5 cells versus HIV-1JR-FL replication in PBMC (FIG. 4)
Format: cell-based, human
Details: PBMC cultures, similar results for MIP-1α and MIP-1β
Excerpt: Similar results were obtained for MIP-1α and MIP-1β.

B1: PRO 140: humanized IgG4,κ anti-CCR5 mAb being developed for HIV-1 therapy (antibody, chains of the INN, looked up, V domains shown)
VH: EVQLVESGGGLVKPGGSLRLSCAASGYTFSNYWIGWVRQAPGKGLEWIGDIYPGGNYIRNNEKFKDKTTLSADTSKNTAYLQMNSLKTEDTAVYYCGSSFGSNYVFAWFTYWGQGTLVTVSS
VL: DIVMTQSPLSLPVTPGEPASISCRSSQRLLSSYGHTYLHWYLQKPGQSPQLLIYEVSNRFSGVPDRFSGSGSGTDFTLKISRVEAEDVGVYYCSQSTHVPLTFGQGTKVEIK
effect on RANTES-induced calcium mobilization and on HIV-1JR-FL replication: blocks HIV-1 but not chemokine signaling
